Experimental data reported in PMC10729762, “CsrA selectively modulates sRNA-mRNA regulator outcomes”.

B1: SibC (structured_RNA)
RNA: GUAAGGGUAAGGGAGGAUUGCUCCUCCCCUGAGACUGACUGUUAAUAAGCGCUGAAACUUAUGAGUAACAGUACAAUCAGUAUGAUGACAAGUCGCAUCAUAACCCUUCUCCUUCAAGCCCUCGCUUCGGUGAGGGCUUU
B2: GcvB (structured_RNA)
RNA: ACUUCCUGAGCCGGAACGAAAAGUUUUAUCGGAAUGCGUGUUCUGGUGAACUUUUGGCUUACGGUUGUGAUGUUGUGUUGUUGUGUUUGCAAUUGGUCUGCGAUUCAGACCAUGGUAGCAAAGCUACCUUUUUUCACUUCCUGUACAUUUACCCUGUCUGUCCAUAGUGAUUAAUGUAGCACCGCCUAAUUGCGGUGCUUUUUUUU
B3: GlmZ (structured_RNA)
RNA: GUAGAUGCUCAUUCCAUCUCUUAUGUUCGCCUUAGUGCCUCAUAAACUCCGGAAUGACGCAGAGCCGUUUACGGUGCUUAUCGUCCACUGACAGAUGUCGCUUAUGCCUCAUCAGACACCAUGGACACAACGUUGAGUGAAGCACCCACUUGUUGUCAUACAGACCUGUUUUAACGCCUGCUCCGUAAUAAGAGCAGGCGUUUUUUU
B4: SibD (structured_RNA)
RNA: ACAAGGGUGAGGGAGGAUUUCUCCCCCCUCUGAUUGGCUGUUAAUAAGCUGCGAAACUUACGAGUAACAACACAAUCAGUAUGAUGACGAGCUUCAUCAUAACCCUUUCCUUCUGUAAGGCCCCCUUCUUCGGGAGGGGCUUU
B5: MicL-S (structured_RNA)
RNA: AUUUUUACCGUUGCAUCAUGUCGCCCAAUAUGAUGCUUGCUCGUACCAGGCCCCUGCAAUUUCAACAGGGGCCUUUUUUU
B6: DsrA (structured_RNA)
RNA: AACACAUCAGAUUUCCUGGUGUAACGAAUUUUUUAAGUGCUUCUUGCUUAAGCAAGUUUCAUCCCGACCCCCUCAGGGUCGGGAUUU
B7: GadY (structured_RNA)
RNA: ACUGAGAGCACAAAGUUUCCCGUGCCAACAGGGAGUGUUAUAACGGUUUAUUAGUCUGGAGACGGCAGACUAUCCUCUUCCCGGUCCCCUAUGCCGGGUUUUUUU
B8: SgrS (structured_RNA)
RNA: GAUGAAGCAAGGGGGUGCCCCAUGCGUCAGUUUUAUCAGCACUAUUUUACCGCGACAGCGAAGUUGUGCUGGUUGCGUUGGUUAAGCGUCCCACAACGAUUAACCAUGCUUGAAGGACUGAUGCAGUGGGAUGACCGCAAUUCUGAAAGUUGACUUGCCUGCAUCAUGUGUGACUGAGUAUUGGUGUAAAAUCACCCGCCAGCAGAUUAUACCUGCUGGUUUUUUUU
B9: SibA (structured_RNA)
RNA: GUGAGGGUUAGGGAGAGGUUUCCCCCUCCCCCUGGUGUUCUUAGUAAGCCUGGAAGCUAAUCACUAAGAGUAUCACCAGUAUGAUGACGUGCUUCAUCAUAACCCUUUCCUUAUUAAAAGCCCUCUUCUCCGGGAGAGGCUUU
B10: McaS (structured_RNA)
RNA: ACCGGCGCAGAGGAGACAAUGCCGGAUUUAAGACGCGGAUGCACUGCUGUGUGUACUGUAGAGUCUGGCGGAUGUCGACAGACUCUAUUUUUU
B11: ChiX (structured_RNA)
RNA: ACACCGUCGCUUAAAGUGACGGCAUAAUAAUAAAAAAAUGAAAUUCCUCUUUGACGGGCCAAUAGCGAUAUUGGCCAUUUUUUU
B12: Spot 42 (spf) (structured_RNA)
RNA: GUAGGGUACAGAGGUAAGAUGUUCUAUCUUUCAGACCUUUUACUUCACGUAAUCGGAUUUGGCUGAAUAUUUUAGCCGCCCCAGUCAGUAAUGACUGGGGCGUUUUUUA

Biological target: T1, CsrA (UniProt P69913 1-61)
T1 sequence (P69913 whole entry): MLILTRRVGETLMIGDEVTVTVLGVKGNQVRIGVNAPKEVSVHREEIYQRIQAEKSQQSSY
Test: EMSA; up to 6 uM CsrA; 10 nM denatured RNA, 0-6 uM CsrA, 0-3 uM Hfq; 1X binding buffer (10 mM Tris-HCl pH 7.5, 10 mM MgCl2, 100 mM KCl) plus CsrA dilution buffer, 11% glycerol, 20 mM
Conditions: protein: recombinant; chain copies: 2; label: internal 32P-UTP

Binder | binding result
B1 | no binding
B2 | no binding

Biological target: T1, CsrA
Test: EMSA; 6 uM CsrA; 10 nM denatured RNA, 0-6 uM CsrA, 0-3 uM Hfq; 1X binding buffer (10 mM Tris-HCl pH 7.5, 10 mM MgCl2, 100 mM KCl) plus CsrA dilution buffer, 11% glycerol, 20 mM
Conditions: protein: recombinant; chain copies: 2; label: internal 32P-UTP

Binder | binding result
B3 | binds
B4 | binds
B5 | binds

Biological target: T1, CsrA
Test: EMSA; 3 or 6 uM CsrA; 10 nM denatured RNA, 0-6 uM CsrA, 0-3 uM Hfq; 1X binding buffer (10 mM Tris-HCl pH 7.5, 10 mM MgCl2, 100 mM KCl) plus CsrA dilution buffer, 11% glycerol, 20 mM
Conditions: protein: recombinant; chain copies: 2; label: internal 32P-UTP

Binder | binding result
B6 | binds
B7 | binds
B8 | binds
B9 | binds
B10 | binds
B11 | binds

Same assay, conditions: protein: recombinant; chain copies: 2; label: internal 32P-UTP (EMSA)

Binder | binding result
B12 | binds
